Legend:
[1] = target: MotA1 from Paenibacillus sp. TCA20 (Paenibacillus sp. TCA20); assay: cryo-EM structure; co-expressed chimeric MotA1/MotB1-His6 complex, solubilised in LMNG, purified by Ni-affinity and SEC, reconstituted into peptidisc; 20 mM Tris-HCl pH 8.0, 100 mM NaCl; single particle analysis, three classes (3.3, 3.3 and 3.5 Å)
[2] = target: chimeric MotB1 (N-terminal transmembrane domain of Paenibacillus sp. TCA20 MotB1 joined to the C-terminal periplasmic domain of E. coli MotB) (Paenibacillus sp. TCA20 | E. coli) (UniProt P0AF06); assay: as above

stoichiometry N [1] | stoichiometry N [2] | Substance
5 | – | MotA1 from Paenibacillus sp. TCA20 (natural protein)
– | 2 | chimeric MotB1 (N-terminal transmembrane domain of Paenibacillus sp. TCA20 MotB1 joined to the C-terminal periplasmic domain of E. coli MotB) (from UniProt P0AF06 104-302)

— article PMC11940548
